Laboratory results from patent US10227575B2, “Multi-domain enzymes having cutinase activity, compositions comprising same and uses thereof” (OZYMES, priority 2015, dated 2019).

How the values were obtained:
[1] = Substrate range on p-NP esters, KrCUT versus KrCUT189; format: biochemical
Method: (§1) Esterase activity was determined by monitoring the formation of pNP at 410 nm from various pNP-esters using a Beckman UV spectrophotometer (model DU 640) (21). Substrates were dissolved in isopropanol and were added to 50 mM sodium phosphate buffer pH 8.0 to give 10% (v/v) total isopropanol concentration in a 1 mL reaction volume. pNP-butyrate was used at a final concentration of 1.2 mM. For pNP-caprylate, myristate and palmitate, the final concentration ranged from 0.1 to 0.5 mM. The reaction (1 mL) was started by adding an appropriate amount of enzyme. One enzyme unit (U) is defined as the amount of enzyme that produced 1 μmol of product (pNP) per min; specific activity is expressed as U/mg protein. A molar extinction coefficient of 15 mM^−1 cm^−1 for pNP is used for calculating enzyme activity.

[2] = Adsorption assay on PHB granules (Langmuir isotherm); format: binding
Method: Purified KrCUT of concentrations ranging from 0.16 to 3.2 mg/mL were mixed with 25 mg PHB in 50 mM sodium phosphate (pH 8.0) in a total volume of 1 mL and mixed by gently shaking for 3 h. The PHB polymer was removed by centrifugation and the concentration of protein in the supernatant was determined by the BCA method. The concentration of bound protein at a particular concentration of cutinase was calculated as the difference between a control without added PHB and free cutinase after incubation with PHB.
Adsorption assays were carried out following procedures of Kasuya et al. (1999). Purified KrCUT and KrCUT189 at concentrations ranging from 0.16 to 3.2 mg/mL were added to a suspension of 25 mg PHB in 50 mM sodium phosphate (pH 8.0) in a total volume 1 mL. The mixture was incubated at room temperature with gentle shaking for at least 3 h. The PHB polymer was removed by centrifugation and the concentration of protein in the supernatant was determined by the BCA method. The concentration of bound protein at a particular concentration of cutinase was calculated as the difference between a control without added PHB and free cutinase after incubation with PHB. An isotherm of [Bound](mg/mg PHB) vs [Free] (mM) was generated and binding parameters were determined by non-linear regression using the Langmuir equation:
[formula] where [E]=Ead+[E]e, is the concentration of the protein added; Emax is the maximum amount of protein adsorbed on the polyester granules, and K is the adsorption equilibrium constant of the protein.

[3] = Degradation of polylactic acid; conditions: 2.5 μM; 2 Units
[4] = Degradation of poly(1,3-propylene adipate); conditions: 2.5 μM, after 24 hours
[5] = Thermostability of purified KrCUT (40-60° C.); format: biochemical
Method: Enzyme stability was studied over the temperature range of 40-60° C. using purified KrCUT. Aliquots were withdrawn at defined times (10, 30 and 80 min), chilled on ice, and assayed for activity against p-NP butyrate at room temperature. KrCUT appeared thermostable up to 45° C.

[6] = Polymer binding test, cellulose
Method: Different polymers (cellulose, PLA, PCL, and PHB) were tested to evaluate the ability of KrCUT and KrCUT189 to bind these materials. Binding assays for PCL and PLA could not be performed since both polymers were degraded by the enzymes.

[7] = Potential inhibitors of cutinase activity; format: biochemical
Method: as §1
KrCUT cutinase activity was assayed as described in Example 1, section 1.6 in the presence of various chemicals using p-NP palmitate as substrate under standard assay conditions. […] Cu^2+ at 1.0 mM had little effect. The enzyme was not affected by the metal-chelating agent EDTA even at 10 mM. The anionic surfactant SDS was a strong inhibitor of cutinase even at 0.01% retaining only 28% activity. […] Dimethylsulfoxide (at 30%) and dimethylformide (at 5%) inhibited cutinase activity by about 70%.

[8] = Long term stability of KrCUT in culture medium; format: physicochemical; conditions: for Activity (U/mL): culture medium at 4° C.
[9] = Esterase assay, specific activity of KrCUT versus YebF-KrCUT; format: biochemical; conditions: pNP-palmitate as substrate
Method: as §1
The presence of YebF appeared to greatly decrease the activity of the fusion proteins. […] The results are shown in FIG. 6, in which fractions C1-C10 correspond to the first peak (KrCUT) and fractions D9-D11 correspond to the second peak (YebF-KrCUT).

[10] = pH optimum in Universal Buffer; format: biochemical; conditions: pH 5-11, p-nitrophenyl butyrate
Method: as §1
Universal Buffer solutions were prepared according to Britton and Robinson (Surinenaite et al., 2002), having the selected pH value from 5-11. Activity of KrCUT and KrCUT189 were measured at the indicated pH, using p-nitrophenyl butyrate as substrate as described in Example 1, section 1.6). Curves were obtained by plotting values of activity against pH.

B1: KrCUT: mature Kineococcus radiotolerans cutinase, amino acids 34-294 of SEQ ID NO: 1; SEQ ID NO: 6 (protein)
chain: ATCSDVDVVFARGTGETPGLGVVGGPFVRSLTGELSDRTVTSHAVDYAASSSQASAGPGATAMSAHVREVAAACPSTRFVLGGYSQGATVTDIALGIRTGTTTGTPVPAELAGRVAAVVVFGNPLGLSGRTIATASSTYGPKSKDYCNSSDSVCGSAPKTGTGGHLSYASNGSTTDGARFAAGLVRAAGTPTTPTPTPTPTPVPTTCVRDSTRDHVAADRAVSLYGRAYARGSRDSLGATSSYNVVSLQQVEGGWRLVTAC
modifications: Kineococcus radiotolerans; (1)..(261) KrCUT (lacking residues 1-33 of ssKrCUT)
- activity towards pNB-acetate [1]: little activity
- fold higher activity with pNP butyrate over pNP-palmitate [1]: 8 fold
- substrate giving the highest activity ([1]; p-NP esters): pNP butyrate
- binding to PHB [2]: binds efficiently
- degradation of PHB [2]: did not degrade
- adsorption equilibrium constant (K) ([2]; 25° C., pH 8.0): 0.12±0.03 ml/mg PHB
- maximum amount of cutinase absorbed on the PHB granules (Emax) ([2]; 25° C., pH 8.0): 23.68 ± 0.03 µg/mg
- PLA degraded [3]: approximately 5%
- adipic acid found in the reaction mixture [4]: 12%
- thermostable up to ([5]; 10, 30 and 80 min heat treatment): up to 45 °C
- activity left after heat treatment ([5]; 50° C. and above, 10 min): virtually no activity left
- binding to cellulose [6]: did not bind
- effect of para-chloromercuribenzoate ([7]; 0.01 to 1 mM): no discernible effect
- effect of 2-propanol ([7]; 2-propanol exceeding 15%): strongly reduces enzyme activity
- effect of Cu2+ ([7]; Cu2+ 1.0 mM): little effect
- effect of EDTA ([7]; EDTA 10 mM): not affected
- enzyme inhibition by Fe2+ ([7]; Fe2+ 1 mM): 50%
- enzyme inhibition by Mg2+ ([7]; Mg2+ 10 mM): 19%
- activity retained with SDS ([7]; SDS 0.01%): 28%
- effect of SDS ([7]; SDS 0.1%): complete loss of activity
- effect of alcohols ([7]; concentration above 15-20%): strong inhibiting effect
- inhibition by dimethylformide ([7]; dimethylformide 5%): about 70%
- inhibition by dimethylsulfoxide ([7]; dimethylsulfoxide 30%): about 70%
- loss of activity by zinc ion ([7]; zinc ion 0.1 mM): over 90%
- effect of zinc ion on cutinase activity ([7]; zinc ion 1 mM): complete loss of activity
- Activity (U/mL) ([8]; 0 months): 3.0 ± 0.94 U/mL
- Activity (U/mL) ([8]; 3 months): 25.67 ± 0.94 U/mL
- Activity (U/mL) ([8]; 4 months): 17.13 ± 0.70 U/mL
- Activity (U/mL) ([8]; 17 months): 16.66 ± 2.47 U/mL
- Activity (U/mL) ([8]; 19 months): 21.94 U/mL
- activity retained ([8]; room temperature, culture medium without additives, 4 months): full activity
- specific activity [9]: 162 U/mg
- pH optimum [10]: 8
